Reference: article PMC9114808

Target: 14-3-3 protein gamma (UniProt P61982)
Assay: peptide bead pull-down, label-free MS
Details: reference: unphosphorylated peptide; sites T426

binding against the reference: stronger
Substance: Septin 7 (Sept7) C-terminal tail peptide C-terminal tail, 416-438 (from UniProt Q16181) pT426 peptide
